Assay results as given in PMC10123104.

Substrate: Nc1nc2c(ncn2[C@@H]2O[C@H](COP(=O)(O)OP(=O)(O)OP(=O)(O)O)[C@@H](O)[C@H]2O)c(=O)[nH]1
Experiment: purified protein, by the assay type
Type: biochemical
Description: Nucleotides were detected at 254 nm. […] All measurements were performed in triplicate.

B1: ObgE (Escherichia coli K-12) (protein)
chain: MKFVDEASILVVAGDGGNGCVSFRREKYIPKGGPDGGDGGDGGDVWMEADENLNTLIDYRFEKSFRAERGQNGASRDCTGKRGKDVTIKVPVGTRVIDQGTGETMGDMTKHGQRLLVAKGGWHGLGNTRFKSSVNRTPRQKTNGTPGDKRELLLELMLLADVGMLGMPNAGKSTFIRAVSAAKPKVADYPFTTLVPSLGVVRMDNEKSFVVADIPGLIEGAAEGAGLGIRFLKHLERCRVLLHLIDIDPIDGTDPVENARIIISELEKYSQDLATKPRWLVFNKIDLLDKVEAEEKAKAIAEALGWEDKYYLISAASGLGVKDLCWDVMTFIIENPVVQAEEAKQPEKVEFMWDDYHRQQLEEIAEEDDEDWDDDWDEDDEEGVEFIYKR
notes: full length, N-terminally His6-tagged (pET28a), nucleotide-free after alkaline phosphatase treatment
Km: 4 µM
